Laboratory results reported in patent US9789176.

Target: CD40 (from R&D systems) (UniProt P25942)
Chain of UniProt P25942 (P25942 21-193 limits assumed): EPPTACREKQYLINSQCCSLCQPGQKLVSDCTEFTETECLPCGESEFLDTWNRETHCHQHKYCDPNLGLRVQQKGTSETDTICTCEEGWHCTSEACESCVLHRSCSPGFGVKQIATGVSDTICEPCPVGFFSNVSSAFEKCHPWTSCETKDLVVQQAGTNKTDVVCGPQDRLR

toxic shock syndrome toxin-1 (TSST-1), native / wild-type (from UniProt P06886 41-234) (other; other documents disagree on this pair)
Kd: 2.7 µM
